Values belong to the binder of their own block, whether it stands above or below them.
Experiments:
LexA BD-HRt = molecular target: T1, LexA BD-HRt (mouse, UniProt P0A7C2 1-202; Q61645 490-1182); assay: yeast two-hybrid library screen; number of positive clones with this identity
T1 construct: domain: Lex A DNA BD;range 490-1182; also called BD-HRt(mouse); Lex A DNA BD-HRt
T1 sequence (looked up): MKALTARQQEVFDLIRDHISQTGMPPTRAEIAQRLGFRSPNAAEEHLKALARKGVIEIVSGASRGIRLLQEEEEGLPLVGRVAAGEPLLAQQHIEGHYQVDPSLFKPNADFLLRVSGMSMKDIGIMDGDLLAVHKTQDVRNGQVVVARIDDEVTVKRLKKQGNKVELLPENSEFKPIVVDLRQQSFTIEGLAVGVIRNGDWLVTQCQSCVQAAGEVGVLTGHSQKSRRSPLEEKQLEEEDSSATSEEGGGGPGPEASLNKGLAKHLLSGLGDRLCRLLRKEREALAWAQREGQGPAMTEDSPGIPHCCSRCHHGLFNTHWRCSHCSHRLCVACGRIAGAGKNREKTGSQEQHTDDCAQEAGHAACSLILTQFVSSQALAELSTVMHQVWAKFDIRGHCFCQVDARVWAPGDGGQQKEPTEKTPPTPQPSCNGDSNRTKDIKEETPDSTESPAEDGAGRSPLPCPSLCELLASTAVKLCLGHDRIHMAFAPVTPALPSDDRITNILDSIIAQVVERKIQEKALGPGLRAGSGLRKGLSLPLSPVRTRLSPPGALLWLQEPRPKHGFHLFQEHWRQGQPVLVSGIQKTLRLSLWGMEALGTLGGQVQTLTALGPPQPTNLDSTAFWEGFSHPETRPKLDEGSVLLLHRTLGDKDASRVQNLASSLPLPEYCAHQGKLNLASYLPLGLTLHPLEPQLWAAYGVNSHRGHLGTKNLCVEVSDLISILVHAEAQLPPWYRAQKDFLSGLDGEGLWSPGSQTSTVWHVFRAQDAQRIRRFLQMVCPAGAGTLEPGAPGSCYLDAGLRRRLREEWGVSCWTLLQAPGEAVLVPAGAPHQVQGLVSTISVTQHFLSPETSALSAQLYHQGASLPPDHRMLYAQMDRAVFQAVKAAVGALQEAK
Excerpt: Clontech Human Keratinocyte GAL4 cDNA library (complexity 2.5×10⁶) in pACT2 vector was used used to screen for HRt interacting proteins. A Leu⁻, Trp⁻ yeast strain with HIS3 and LACZ reporters for yeasts two hybrid interaction (strain L41) was first transformed with LexA BD-HRt palsmid) for Trp⁺ phenotype. The resulting L41/LexA BD-HR transformant was screened to ensure expression of LexA BD-HRt protein and also for lack of auto activation of the reporter genes HIS3 and LACZ. This strain was transformed with Keratinocyte AD-cDNA library and plated on Trp⁻Leu⁻His⁻ plate to select for clones with positive interaction. Colonies that appeared on selsctive plates were subsequently tested for LACZ expression on X-GAL plates. […] AD-plasmid was rescued from the 90 clones and retested for HRt bait dependance. […] The positive clones are expected to contain an AD-IP (interacting partner) that interacts with BD-HRt.

AD-HRt(mouse) = molecular target: T2, AD-HRt(mouse) (mouse, UniProt Q61645 490-1182); assay: cell-based or functional assay
T2 sequence (looked up): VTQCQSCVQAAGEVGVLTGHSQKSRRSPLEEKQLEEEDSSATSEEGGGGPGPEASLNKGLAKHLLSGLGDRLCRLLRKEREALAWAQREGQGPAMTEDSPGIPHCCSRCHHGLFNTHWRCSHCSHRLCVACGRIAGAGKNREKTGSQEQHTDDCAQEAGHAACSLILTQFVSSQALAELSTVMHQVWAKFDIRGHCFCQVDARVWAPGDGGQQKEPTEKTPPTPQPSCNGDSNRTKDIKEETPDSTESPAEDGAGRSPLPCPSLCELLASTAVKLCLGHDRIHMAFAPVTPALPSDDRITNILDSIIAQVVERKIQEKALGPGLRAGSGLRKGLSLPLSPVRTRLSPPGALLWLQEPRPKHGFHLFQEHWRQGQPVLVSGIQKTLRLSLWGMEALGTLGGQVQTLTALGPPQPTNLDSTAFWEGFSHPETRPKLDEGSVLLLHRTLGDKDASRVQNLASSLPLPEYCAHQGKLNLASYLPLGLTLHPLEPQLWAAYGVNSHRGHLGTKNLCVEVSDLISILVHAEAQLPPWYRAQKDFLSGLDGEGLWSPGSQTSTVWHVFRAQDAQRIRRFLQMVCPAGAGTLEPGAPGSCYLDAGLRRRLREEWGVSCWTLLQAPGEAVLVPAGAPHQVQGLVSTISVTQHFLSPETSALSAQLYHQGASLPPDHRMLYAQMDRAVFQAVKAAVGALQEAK

AD-TRβ = AD-TRβ (UniProt P04386 768-881); assay: cell-based or functional assay
Sequence of AD-TRβ (P04386 768-881): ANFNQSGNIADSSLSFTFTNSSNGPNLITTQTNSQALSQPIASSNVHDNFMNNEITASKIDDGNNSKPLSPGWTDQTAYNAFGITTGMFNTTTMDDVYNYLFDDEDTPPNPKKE

Hits (LexA BD-HRt): 4
B1: Homo Sapiens Similar to Stromal Antigen 2 (other, UniProt Q8N3U4 1-1231, looked up, not shown: large carriers)
chain: MIAAPEIPTDFNLLQESETHFSSDTDFEDIEGKNQKQGKGKTCKKGKKGPAEKGKGGNGGGKPPSGPNRMNGHHQQNGVENMMLFEVVKMGKSAMQSVVDDWIESYKHDRDIALLDLINFFIQCSGCKGVVTAEMFRHMQNSEIIRKMTEEFDEDSGDYPLTMAGPQWKKFKSSFCEFIGVLVRQCQYSIIYDEYMMDTVISLLTGLSDSQVRAFRHTSTLAAMKLMTALVNVALNLSINMDNTQRQYEAERNKMIGKRANERLELLLQKRKELQENQDEIENMMNAIFKGVFVHRYRDAIAEIRAICIEEIGIWMKMYSDAFLNDSYLKYVGWTMHDKQGEVRLKCLTALQGLYYNKELNSKLELFTSRFKDRIVSMTLDKEYDVAVQAIKLLTLVLQSSEEVLTAEDCENVYHLVYSAHRPVAVAAGEFLYKKLFSRRDPEEDGMMKRRGRQGPNANLVKTLVFFFLESELHEHAAYLVDSMWDCATELLKDWECMNSLLLEEPLSGEEALTDRQESALIEIMLCTIRQAAECHPPVGRGTGKRVLTAKEKKTQLDDRTKITELFAVALPQLLAKYSVDAEKVTNLLQLPQYFDLEIYTTGRLEKHLDALLRQIRNIVEKHTDTDVLEACSKTYHALCNEEFTIFNRVDISRSQLIDELADKFNRLLEDFLQEGEEPDEDDAYQVLSTLKRITAFHNAHDLSKWDLFACNYKLLKTGIENGDMPEQIVIHALQCTHYVILWQLAKITESSSTKEDLLRLKKQMRVFCQICQHYLTNVNTTVKEQAFTILCDILMIFSHQIMSGGRDMLEPLVYTPDSSLQSELLSFILDHVFIEQDDDNNSADGQQEDEASKIEALHKRRNLLAAFCKLIVYTVVEMNTAADIFKQYMKYYNDYGDIIKETMSKTRQIDKIQCAKTLILSLQQLFNEMIQENGYNFDRSSSTFSGIKELARRFALTFGLDQLKTREAIAMLHKDGIEFAFKEPNPQGESHPPLNLAFLDILSEFSSKLLRQDKRTVYVYLEKFMTFQMSLRREDVWLPLMSYRNSLLAGGDDDTMSVISGISSRGSTVRSKKSKPSTGKRKVVEGMQLSLTEESSSSDSMWLSREQTLHTPVMMQTPQLTSTIMREPKRLRPEDSFMSVYPMQTEHHQTPLDYNRRGTSLMEDDEEPIVEDVMMSSEGRIEDLNEGMDFDTMDIDLPPSKNRRERTELKPDFFDPASIMDESVLGVSMF
notes: Prey clone; also called AD-IP; BC001765

relative alpha-galactosidase activity (yeast two-hybrid reporter, assay of example 3) with 1alpha, 25-dihydroxy cholecalciferol (25 DHC) at sub-micromolar concentrations (AD-HRt(mouse)): > 3 fold
relative alpha-galactosidase activity (yeast two-hybrid reporter, assay of example 3) with 25-hydroxy cholecalciferol (25 HC) at sub-micromolar concentrations (AD-HRt(mouse)): > 3 fold
yeast two-hybrid reporter with 25 HC (AD-TRβ): ~2 fold
B2: BD-VDR(mouse) (receptor, UniProt P04386 1-147, looked up)
chain: MKLLSSIEQACDICRLKKLKCSKEKPKCAKCLKNNWECRYSPKTKRSPLTRAHLTEVESRLERLEQLFLLIFPREDLDMILKMDSLQDIKALLTGLFVQDNVNKDAVTDRLASVETDMPLTLRQHRISATSSSEESSNKGQRQLTVSMEAMAASTSLPDPGDFDRNVPRICGVCGDRATGFHFNAMTCEGCKGFFRRSMKRKALFTCPFNGDCRITKDNRRHCQACRLKRCVDIGMMKEFILTDEEVQRKREMIMKRKEEEALKDSLRPKLSEEQQHIIAILLDAHHKTYDPTYADFRDFRPPIRADVSTGSYSPRPTLSFSGDSSSNSDLYTPSLDMMEPASFSTMDLNEEGSDDPSVTLDLSPLSMLPHLADLVSYSIQKVIGFAKMIPGFRDLTSDDQIVLLKSSAIEVIMLRSNQSFTLDDMSWDCGSQDYKYDITDVSRAGHTLELIEPLIKFQVGLKKLNLHEEEHVLLMAICIVSPDRPGVQDAKLVEAIQDRLSNTLQTYIRCRHPPPGSHQLYAKMIQKLADLRSLNEEHSKQYRSLSFQPENSMKLTPLVLEVFGNEIS

Hits (LexA BD-HRt): 14
B3: Homo Sapiens Ubiquitous Receptor (receptor, UniProt P55055 1-460, looked up, not shown: large carriers)
chain: MSSPTTSSLDTPLPGNGPPQPGAPSSSPTVKEEGPEPWPGGPDPDVPGTDEASSACSTDWVIPDPEEEPERKRKKGPAPKMLGHELCRVCGDKASGFHYNVLSCEGCKGFFRRSVVRGGARRYACRGGGTCQMDAFMRRKCQQCRLRKCKEAGMREQCVLSEEQIRKKKIRKQQQESQSQSQSPVGPQGSSSSASGPGASPGGSEAGSQGSGEGEGVQLTAAQELMIQQLVAAQLQCNKRSFSDQPKVTPWPLGADPQSRDARQQRFAHFTELAIISVQEIVDFAKQVPGFLQLGREDQIALLKASTIEIMLLETARRYNHETECITFLKDFTYSKDDFHRAGLQVEFINPIFEFSRAMRRLGLDDAEYALLIAINIFSADRPNVQEPGRVEALQQPYVEALLSYTRIKRPQDQLRFPRMLMKLVSLRTLSSVHSEQVFALRLQDKKLPPLLSEIWDVHE
notes: Prey clone; also called Oxysterols Receptor LXR-Beta; LXR

Hits (LexA BD-HRt): 1
B4: Homo Sapiens Protein Inhibitor of Activated STAT-1 (PIAS1) (other, UniProt O75925 1-651, looked up, not shown: large carriers)
chain: MADSAELKQMVMSLRVSELQVLLGYAGRNKHGRKHELLTKALHLLKAGCSPAVQMKIKELYRRRFPQKIMTPADLSIPNVHSSPMPATLSPSTIPQLTYDGHPASSPLLPVSLLGPKHELELPHLTSALHPVHPDIKLQKLPFYDLLDELIKPTSLASDNSQRFRETCFAFALTPQQVQQISSSMDISGTKCDFTVQVQLRFCLSETSCPQEDHFPPNLCVKVNTKPCSLPGYLPPTKNGVEPKRPSRPINITSLVRLSTTVPNTIVVSWTAEIGRNYSMAVYLVKQLSSTVLLQRLRAKGIRNPDHSRALIKEKLTADPDSEIATTSLRVSLLCPLGKMRLTIPCRALTCSHLQCFDATLYIQMNEKKPTWVCPVCDKKAPYEHLIIDGLFMEILKYCTDCDEIQFKEDGTWAPMRSKKEVQEVSASYNGVDGCLSSTLEHQVASHHQSSNKNKKVEVIDLTIDSSSDEEEEEPSAKRTCPSLSPTSPLNNKGILSLPHQASPVSRTPSLPAVDTSYINTSLIQDYRHPFHMTPMPYDLQGLDFFPFLSGDNQHYNTSLLAAAAAAVSDDQDLLHSSRFFPYTSSQMFLDQLSAGGSTSLPTTNGSSSGSNSSLVSSNSLRESHSHTVTNRSSTDTASIFGIIPDIISLD
notes: Prey clone; extent of the clone unknown; also called AD-IP; AF167160

Hits (LexA BD-HRt): 2
B5: Homo Sapiens DEAD (Asp-Glu-Ala-Asp) box polypeptide 3 (enzyme, UniProt O00571 1-662, looked up, not shown: large carriers)
chain: MSHVAVENALGLDQQFAGLDLNSSDNQSGGSTASKGRYIPPHLRNREATKGFYDKDSSGWSSSKDKDAYSSFGSRSDSRGKSSFFSDRGSGSRGRFDDRGRSDYDGIGSRGDRSGFGKFERGGNSRWCDKSDEDDWSKPLPPSERLEQELFSGGNTGINFEKYDDIPVEATGNNCPPHIESFSDVEMGEIIMGNIELTRYTRPTPVQKHAIPIIKEKRDLMACAQTGSGKTAAFLLPILSQIYSDGPGEALRAMKENGRYGRRKQYPISLVLAPTRELAVQIYEEARKFSYRSRVRPCVVYGGADIGQQIRDLERGCHLLVATPGRLVDMMERGKIGLDFCKYLVLDEADRMLDMGFEPQIRRIVEQDTMPPKGVRHTMMFSATFPKEIQMLARDFLDEYIFLAVGRVGSTSENITQKVVWVEESDKRSFLLDLLNATGKDSLTLVFVETKKGADSLEDFLYHEGYACTSIHGDRSQRDREEALHQFRSGKSPILVATAVAARGLDISNVKHVINFDLPSDIEEYVHRIGRTGRVGNLGLATSFFNERNINITKDLLDLLVEAKQEVPSWLENMAYEHHYKGSSRGRSKSSRFSGGFGARDYRQSSGASSSSFSSSRASSSRSGGGGHGSSRGFGGGGYGGFYNSDGYGGNYNSQGVDWWGN
notes: Prey clone; extent of the clone unknown; also called Homo Sapiens DEAD/H (Asp-Glu-Ala-Asp/His) Box Polypeptide 3; AD-IP

— patent publication US20050106141A1 (PROCTER AND GAMBLE, published 2005)
